{"source": "patent US20150044169", "about": "“METHODS OF […] A […] FAMILY VIRAL INFECTION, COMPOSITIONS FOR […] A […] FAMILY VIRAL INFECTION, AND […] ASSAYS FOR […] COMPOSITIONS FOR […] A […] FAMILY VIRAL INFECTION” (The Board of Trustees of the Leland Stanford Junior …, published 2015)", "target": "Gus (beta-glucuronidase) control (UniProt P05804 P05804:1-603)", "sequence (P05804 whole entry, one chain of several)": "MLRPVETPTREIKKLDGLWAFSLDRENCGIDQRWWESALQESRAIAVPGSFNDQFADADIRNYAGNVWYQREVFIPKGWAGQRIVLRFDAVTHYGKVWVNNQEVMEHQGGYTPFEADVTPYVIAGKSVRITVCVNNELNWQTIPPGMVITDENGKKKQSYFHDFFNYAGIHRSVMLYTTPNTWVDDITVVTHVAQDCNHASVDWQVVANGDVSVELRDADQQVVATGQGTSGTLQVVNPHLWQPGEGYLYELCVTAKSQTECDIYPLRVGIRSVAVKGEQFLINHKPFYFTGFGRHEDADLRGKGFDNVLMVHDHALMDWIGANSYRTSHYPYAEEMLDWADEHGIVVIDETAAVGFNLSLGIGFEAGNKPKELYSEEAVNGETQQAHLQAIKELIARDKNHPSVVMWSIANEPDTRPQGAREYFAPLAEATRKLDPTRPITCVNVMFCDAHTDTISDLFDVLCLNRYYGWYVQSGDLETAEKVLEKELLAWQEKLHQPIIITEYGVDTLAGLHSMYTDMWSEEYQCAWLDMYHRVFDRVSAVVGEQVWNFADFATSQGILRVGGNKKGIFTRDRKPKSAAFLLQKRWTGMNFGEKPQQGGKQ", "experiment": "MITOMI Gus-his negative control", "settings": "tags: C-terminal 6xHis (Roche Gus-his vector); label: Cy3", "excerpt": "For each experiment, an image was taken after MITOMI and the final PBS wash. This was used to determine the concentration of surface bound protein (FITC channel) as well as surface bound target RNA (Cy3 channel). […] Data from multiple data points were averaged, and their standard deviations calculated. Results were then normalized to 1. Between 10-20 replicates were included for each probe tested. A control protein, Gus-his (Roche) was included in each experiment and subjected to the same analysis. When present, detected signal with Gus-his was used for background subtraction.\nA microarray of Cy3-labeled target RNA sequences was used to program a microfluidic device, and binding of bodiby-labeled proteins expressed on the device to the RNA sequences was assayed. Results represent the ratio of bound RNA (median Cy3 signal) to expressed protein (median bodipy signal). Normalized mean values for 10-20 replicates measured in two independent experiments are shown. Error bars represent standard deviation. The grey bars represent binding of HuR-his and the clear bars that of Gus-his, used as a negative control."}
{"binder": "AUUUAUUUAUUUAUUUA (ssRNA)", "note": "[4A]", "values": [{"measurement": "binding result", "result": "no binding"}]}
